{"source": "patent US20250361297A1", "about": "“ANTI- SIGLEC-15 BINDING MOLECULES AND METHODS OF USE” (ADAPTAM THERAPEUTICS, S.L., priority 2024, published 2025)", "key": {"[1]": {"tested_on": "truncated second domain (D2) of Siglec-15", "experiment": "Flow cytometry binding to HEK 293T cells expressing only the truncated second domain (D2) of Siglec-15", "set-up": "species or system human", "conditions": "HEK 293T cells expressing only truncated D2; flow cytometry (FIG. 2B, FIG. 17)", "description": "Flow cytometry was used to interrogate the binding of anti-Siglec-15 monoclonal antibodies to cells expressing only a truncated version of Siglec-15 comprising solely of the second domain (D2). This strategy was useful to identify clones that recognize epitopes outside of the canonical sialic acid binding site located in the first domain (D1).\nFor the ELISA, antigens were immobilized on high-binding plates, and the full-length IgG1 anti-Siglec-15 antibodies were titrated beginning at a concentration of 10 μg/ml. After washing, an anti-human IgG Fab-specific HRP-conjugated secondary antibody was applied for detection. Palivizumab was included as the negative control. Optical densities were measured to generate binding curves from which EC50 values were derived. […] Flow cytometric analysis was conducted, and fluorescence intensity was used to calculate EC50 values, providing a quantitative assessment of the antibodies' cell surface binding efficacy. […] Antibodies were titrated starting at a concentration of 10 μg/ml and detected with an anti-human Fc-specific secondary antibody to detect bound primary antibodies. The half-maximal effective concentration (EC50) was calculated for each antibody to determine its binding affinity to mouse Siglec-15. Results were analyzed and ranked based on the EC50 values. […]"}, "[2]": {"molecular_target": "T1, mutant version of Siglec-15 (R143A) (Homo sapiens, UniProt Q6ZMC9, R143A)", "T1 construct": "expressed in transfected cells; host or cells: HEK293T", "T1 sequence (Q6ZMC9 20-328 R143A)": "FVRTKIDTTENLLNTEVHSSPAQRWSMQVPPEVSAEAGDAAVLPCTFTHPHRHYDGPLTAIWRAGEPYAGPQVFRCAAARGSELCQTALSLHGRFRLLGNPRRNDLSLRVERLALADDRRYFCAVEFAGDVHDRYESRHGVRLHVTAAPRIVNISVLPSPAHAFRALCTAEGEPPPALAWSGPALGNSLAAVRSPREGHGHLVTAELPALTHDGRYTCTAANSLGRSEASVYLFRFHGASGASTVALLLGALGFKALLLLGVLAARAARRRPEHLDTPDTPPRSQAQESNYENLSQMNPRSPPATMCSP", "experiment": "Flow cytometry binding to HEK293T cells expressing mutant Siglec-15 (R143A)", "conditions": "flow cytometry (FIG. 20, FIG. 21)", "method": "Assessment of the binding of anti-Siglec-15 antibodies to HEK293T cells expressing full length human Siglec-15, or mutant human Siglec-15 (R143A) or the domain 2 of human Siglec-15 by Flow cytometry: Siglec-15+, Siglec-15+R143A, and Siglec-15 Domain 2 (D2) HEK293T cells were detached using tryple and washed once with PBS, resuspended in 1× flow cytometry buffer (PBS with 1% FBS) at approximately 1-2×10^6 cells/mL. Then, anti-Siglec-15 mAbs were added to the cell suspension at the desired concentration, starting at 10 μg/mL and performing 1/3 dilutions. Cells were incubated with the indicated antibodies for 30-60 minutes at 4° C. in the dark to prevent degradation of the fluorescent signal. After the primary antibody incubation, cells were washed twice with PBS or flow cytometry buffer by centrifuging at 300-500× g for 5 minutes and the pellet resuspended in fresh buffer. The following antibody was added: anti-human IgG-PE at a 1:500 dilution. Cells were incubated with the secondary antibody for 30 minutes at 4° C. in the dark. Finally, cells were washed twice with PBS or flow cytometry buffer to remove any excess secondary antibody and acquired in a flow cytometer."}, "human Siglec-15": {"molecular_target": "T2, human Siglec-15 (Homo sapiens, UniProt Q6ZMC9)", "T2 construct": "expressed in transfected cells", "T2 sequence (Q6ZMC9 20-328)": "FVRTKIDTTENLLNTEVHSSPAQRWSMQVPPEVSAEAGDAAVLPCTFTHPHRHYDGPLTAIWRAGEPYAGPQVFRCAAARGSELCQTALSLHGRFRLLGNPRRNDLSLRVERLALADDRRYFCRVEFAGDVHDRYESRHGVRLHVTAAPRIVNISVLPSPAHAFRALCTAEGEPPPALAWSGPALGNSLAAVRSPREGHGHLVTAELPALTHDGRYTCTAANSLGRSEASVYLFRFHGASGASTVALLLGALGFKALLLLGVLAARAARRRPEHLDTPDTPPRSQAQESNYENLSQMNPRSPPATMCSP", "experiment": "Blocking of human Siglec-15 binding to Jurkat cells (flow cytometry)", "conditions": "flow cytometry (FIG. 22)", "method": "Blocking assay (Flow cytometry): Briefly, the anti-Siglec-15 antibodies of the disclosure or controls were diluted with human Siglec-15-human Fc protein (Sinobiologicals, 13976-H02H1), at 66.67 nM, and incubated at room temperature for 40 minutes. Then, Jurkat T cells were harvested from cell culture flasks, washed twice, and re-suspended in PBS containing 2% v/v Bovine serum albumin (FACS buffer). Then, 0.5×10^5 cells per well in 96 well-plates were incubated in 100 μL of the antibody/Siglec-15-human Fc mixtures for 40 minutes at 4° C. The plates were washed twice with FACS buffer, and then added and incubated for 40 minutes at 4° C. in dark with 100 μl/well Goat Anti-human IgG (H+L) (1:200 dilution in FACS buffer, Thermofisher). Cells were washed twice and re-suspended in FACS buffer. Fluorescence was measured in a flow cytometer. Data was analyzed using Flowjo and Graphpad Prism software."}, "Siglec-15 positive cells": {"tested_on": "Siglec-15 positive cells", "experiment": "Internalization assay (Zenon pHrodo iFL Green)", "type": "cell-based", "method": "Internalization assay (Zhenon pHrodo): Sufficient volumes of 4× working solution of anti-Siglec-15 antibodies (10 nM) were prepared in cell culture medium for a total of 25 μL for each well of a 96-well plate. A working solution of Zenon™ pHrodo™ iFL IgG Labeling Reagent was prepared at 30 nM and 25 μL were added to each well. The mix was incubated for 5 minutes at room temperature to allow the labeling complexes to form. 5 mL of suspension cells at 2×10^6 cells/mL in cell culture medium were prepared and 50 μL of cells were added to each well of the 96-well plate containing the mix of anti-Siglec-15 antibody and the Zenon™ labeling reagent. Cells were incubated with the labeling complex for different timepoints (1-24 hours) under standard cell culture conditions. Fluorescence was analyzed by flow cytometry."}}, "note": "“Also recorded” adds a separate entry of the source.", "data": [{"molecule": "S15B1: parental mouse anti-Siglec-15 monoclonal antibody from hybridoma; VH SEQ ID NO: 18, VL SEQ ID NO: 19 (antibody, V domains shown, Clone S15B1 VH; Clone S15B1 VL) VH: QVQLQQSGPELVKPGASVKISCKASGYAFSSSWMNWVKQRPGKGLEWIGRIYPGHGETNYNGKFKDKATVTADKSSSTTYMQLSSLTSEDSAVYFCARVDNSDPYYFDYWGQGTTLTVSS VL: DIVLTQSPASLAVSLGQRATISCRASKSVSTSGYSYMHWYQQKPGQPPKLLIYLASNLESGVPARFSGSGSGTDFTLNIHPVEEEDAATYYCQHGRELPFTFGSGTKLEIK", "values": [{"measurement": "binding to D2 of Siglec-15", "setting": "[1]", "value": "displayed binding affinity for D2; also recorded: significant binding to D2"}, {"measurement": "binding to HEK293T cells expressing mutated Siglec-15 (R143A)", "setting": "[2]", "value": "demonstrated binding"}, {"measurement": "blocking of binding of human Siglec-15 to Jurkat cells", "setting": "human Siglec-15", "value": "approximately 60%"}, {"measurement": "percentage of cells that internalized the antibody", "setting": "Siglec-15 positive cells; Zenon pHrodo iFL Green label, 24 hours at 37° C.", "value": 100, "unit": "%"}, {"measurement": "internalization, fold increase over isotype control", "setting": "Siglec-15 positive cells; kinetics over 1, 2, 4, 16, and 24 hours", "value": "approximately 6 fold"}]}]}
